Stoichiometry N data for 1 substance are collected here from PMC12139721.

The target in this test is CUL5-RBX2 (human | mouse) (UniProt Q93034). Put plainly: SEC + native MS.
UniProt Q93034, sequence (Q93034 whole entry, chain 1 of 2): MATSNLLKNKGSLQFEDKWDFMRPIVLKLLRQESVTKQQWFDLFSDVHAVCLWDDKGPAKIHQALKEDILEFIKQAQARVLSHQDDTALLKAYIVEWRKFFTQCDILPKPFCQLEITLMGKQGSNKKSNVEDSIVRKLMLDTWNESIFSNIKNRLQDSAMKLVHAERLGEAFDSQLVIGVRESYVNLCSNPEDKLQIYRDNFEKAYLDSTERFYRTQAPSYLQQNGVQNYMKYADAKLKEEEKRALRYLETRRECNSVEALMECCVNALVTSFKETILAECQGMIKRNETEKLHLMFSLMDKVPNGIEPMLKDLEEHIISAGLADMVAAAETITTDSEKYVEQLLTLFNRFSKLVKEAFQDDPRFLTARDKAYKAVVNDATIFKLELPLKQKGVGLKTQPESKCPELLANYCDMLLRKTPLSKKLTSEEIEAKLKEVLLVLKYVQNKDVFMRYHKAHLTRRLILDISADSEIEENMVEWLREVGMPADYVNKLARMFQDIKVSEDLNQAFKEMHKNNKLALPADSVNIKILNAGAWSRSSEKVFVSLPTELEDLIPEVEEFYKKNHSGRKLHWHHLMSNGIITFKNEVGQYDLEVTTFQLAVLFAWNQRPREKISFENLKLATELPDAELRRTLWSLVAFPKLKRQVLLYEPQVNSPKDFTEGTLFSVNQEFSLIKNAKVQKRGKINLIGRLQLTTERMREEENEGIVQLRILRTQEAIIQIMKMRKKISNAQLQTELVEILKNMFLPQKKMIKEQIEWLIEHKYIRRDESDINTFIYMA
UniProt Q93034, sequence (Q9WTZ1 whole entry, chain 2 of 2, further chain): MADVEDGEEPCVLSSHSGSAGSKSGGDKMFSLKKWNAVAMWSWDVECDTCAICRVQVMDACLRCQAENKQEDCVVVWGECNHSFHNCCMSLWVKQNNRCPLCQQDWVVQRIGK

In the case of “PCMTD1-ELOBC (from UniProt Q96MG8;Q15370;Q15369) (complex)”, the stoichiometry N came out at 1.
